Consider two molecules from PMC11457862.

A value given as a limit tells only on which side of the number the result lay.

The target of test [1] is human IL-2 (amino acids 1-133), soluble, P60568. As to the kind of experiment: yeast display competition (IL-2 binding in the presence of soluble IL-2Rα competitor). The conditions noted are these: chain shown with the change; IL-2 5 nM; IC50 is the concentration of soluble IL-2Rα competitor (Dm27).
Test [2] has the same target. The test is described as follows: yeast display titration. Particulars: chain shown with the change.
Test [3] concerns the target biotinylated human IL-2Rα ectodomain (amino acids 1-217) (human). As to the kind of experiment: BLI; same set-up as a1; equilibrium titration of the response at the end of the association phase, first-order fit (Figures 2 and 3, Supplemental Table 1). (BLI is a label-free optical method that tracks binding on a fibre tip over time.)
In test [4] the target is T1, biotinylated human IL-2Rβ ectodomain (amino acids 1-214) (human) (UniProt P14784).
T1 sequence (chain, biotin on the biotin acceptor peptide (BirA ligase)): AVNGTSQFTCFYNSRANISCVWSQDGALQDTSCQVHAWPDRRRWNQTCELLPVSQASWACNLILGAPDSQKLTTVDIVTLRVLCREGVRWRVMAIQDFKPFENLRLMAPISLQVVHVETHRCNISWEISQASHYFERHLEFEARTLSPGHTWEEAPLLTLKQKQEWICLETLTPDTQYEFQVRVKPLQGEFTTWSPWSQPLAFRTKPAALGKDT
The test is described as above.

The target in test [5] is T1, biotinylated human IL-2Rβ ectodomain (amino acids 1-214) (human). The test is described as follows: BLI; same set-up as a3; equilibrium titration, first-order fit (Supplemental Figure 4A-C, Supplemental Table 4).

B1: yeast-displayed 602 scFv T101S; F225S; G227D (protein)
chain 1: EVQLQESGPGLVAPSQSLSITCTVSGFSLTNYDISWIRQPPGKGLEWLGVIWTGGGTNYNSGFMSRLSITKDNSKSQVFLKMNSLQTDDTAIYYCVRQGRSPYWGQGTLVTVSA
chain 2: DIQVTQSPSSLSVSLGDRVTITCKASKDIYNRLAWYQQKPGNAPRLLISGATSLETGVPSRFSGSGSGKDYTLTITSLQTEDVATYYCQQSWDTPYTFGGGTKLEIK
As usually defined, the IC50 is the point on the concentration scale where inhibition reaches its midpoint. Broadly, the EC50 is the midpoint of the concentration-response curve. Higher therefore signals weaker potency. Consider B1, for which the IC50 in test [1] worked out at 1120 nM. For the same molecule, the EC50 in test [2] is 0.4 nM.

B2: anti-human IL-2 antibody 602 (MAB602), recombinant mouse IgG2a kappa (antibody, V domains shown)
VH: EVQLQESGPGLVAPSQSLSITCTVSGFSLTNYDISWIRQPPGKGLEWLGVIWTGGGTNYNSGFMSRLSITKDNSKSQVFLKMNSLQTDDTAIYYCVRQGRTPYWGQGTLVTVSA
VL: DIQVTQSPSSLSVSLGDRVTITCKASKDIYNRLAWYQQKPGNAPRLLISGATSLETGVPSRFSGSGSGKDYTLTITSLQTEDVATYYCQQFWGTPYTFGGGTKLEIK
One may read the Kd as the free concentration of one partner at which half of the binding sites on the other are occupied at equilibrium, for simple one-to-one binding. High values mean a looser complex, low ones a tighter complex. Consider B2, for which the Kd in test [3], in test [4] and in test [5] was above 2000 nM throughout.
